Results on one molecule are retold here after article PMC11316637 (Structure (London, England : 1993), 2024).

The target of this test is A/New Caledonia/20/1999 (H1N1) hemagglutinin, truncated recombinant HA (Influenza A virus A/New …, UniProt Q6WG00, strain). As to the kind of experiment: ELISA. For orientation: An ELISA detects its analyte on a solid surface through an enzyme-linked reagent.

B1: mAb BE1 (whole mouse antibody) (antibody, V domains shown)
VH: EVQLVESGGGLVQPKGSLKLSCATSGFTFNTFDMHWVRQAPGKDLEWVARIRTKGNSYATYYAASVKDRITISRDDSQSMLYLEMNSLRSEDTAMYYCVREGGHYYGYYFDFWGQGTTLTVSS
VL: EIQMTQTTSSLSASLGDRVTISCRASQDIYNYLNWYQQQPDGAVKLLIYYTSKLHSGVPSRFSGSGSGTDYSLTITNLEQEDIATYFCQQGYTLPYTFGGGTKLEIK
In the case of B1, the binding result is on record as “binds”.
